{
  "source": "paper PMC4851294",
  "about": "(PLoS ONE, 2016)",
  "tested_on": "O=C[C@H](O)[C@H](O)COP(=O)(O)O",
  "assay": "purified protein",
  "data": [
    {"substance": "3-deoxy-D-arabino-heptulosonate 7-phosphate synthase (MtuDAH7PS) (Mycobacterium tuberculosis H37Rv)", "values": [
      {"measurement": "Km", "value": "28 ± 2", "unit": "µM"},
      {"measurement": "kcat", "value": "4.7 ± 0.1", "unit": "s⁻¹"},
      {"measurement": "kcat/Km", "value": "170000 ± 20000", "unit": "M⁻¹ s⁻¹"}
    ]}
  ]
}
